Measurements as given in the supplement of paper PMC10126150.
± gives the standard deviation of the averaged measurements.

Tested on: ATP
Assay: switch fluorescence ratio, 500 uM ATP over buffer (Cy3 cluster intensity, sum of 5 cycles each) (fold (ratio)); higher = stronger signal-on switching upon ATP binding; sequences stand for … in TCGTCGGCAGCGTCAGATGTGTATAAGAGACAGTTTTTTTTTTTTTTTTTTTTTTTTT…TC
Settings: aptamer strand: ATP DNA aptamer (quencher-CACCTGGGGGAGTATTGCGGAGGAAGG + anchor), 100 nM annealed; ATP concentration: 500 uM
Summary of the method: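 Cy3-labelled switching-strand clusters on a modified Illumina MiSeq flow-cell were annealed to 100 nM quencher-labelled ATP aptamer and imaged first in selection buffer, then after 15 min with 500 uM ATP at 22 °C. NaOH stripping and re-annealing separated each of five buffer/ATP cycles, and clusters outside 100-1000 RFU were excluded. The fluorescence ratio sums target-cycle Cy3 intensity over buffer-cycle Cy3 intensity per cluster and averages it per switch-domain sequence.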
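Also: ATP exposure 15 min at 22 °C before imaging.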

Sequence	switch fluorescence ratio
GGGGATGAAG	0.994 ± 0.014
GACCGGCATG	1.01 ± 0.024
GTCGTCCTGT	0.9884 ± 0.0083
GCGAGAGAGT	0.99812 ± 0.0009
CCAGAAGGGG	1.52 ± 0.89
TTGAGGGTCG	0.995 ± 0.035
GCGGCAGTCT	1.03 ± 0.012
AAGGGTCTAA	0.978 ± 0.037
AATTATTGAG	1.02 ± 0.038
ATGGGGGATG	0.973 ± 0.028
CGGGGAGTGC	1.01 ± 0.061
TCGCAAATTT	1.3 ± 0.12
CAAATGTTGG	0.983 ± 0.026
GTTTTCTGTT	1.0024 ± 0.00021
GGGGCGAAGG	0.999 ± 0.038
GGGCCTTTAG	1.02 ± 0.033
CTTTCGATAG	1.06 ± 0.049
GAAAAAGTGC	0.989 ± 0.095
TTAAGCCTG	1.012 ± 0.0021
CAGTGTATTT	1.01 ± 0.038
GCAATTGGTC	1.25 ± 0.06
GGGGACGGCA	1.01 ± 0.046

Sequence	switch fluorescence ratio
CGAGAGTTTT	0.985 ± 0.032
CTTAAGGGCC	1.02 ± 0.012
ACAAGTATTA	1.017 ± 0.0051
TGACTGCGGG	1.01 ± 0.015
TCTAGATGGT	0.992 ± 0.025
ATAAAAAAGC	1.02 ± 0.074
ACCTTGGGAA	1.01 ± 0.017
TTATTGACAT	0.995 ± 0.021
AGTGTTCGTT	0.959 ± 0.023
CGGTGGACGA	0.9977 ± 0.005
GGGGGCAGGG	0.998 ± 0.065
AGGTTATAGT	1.03 ± 0.051
GATTATATTT	0.997 ± 0.045
TCATGTTGTG	1.01 ± 0.02
TAAAACCGGG	1 ± 0.025
CTAGGGGATA	1.02 ± 0.014
CGGCGCATTA	2.86 ± 0.55
CGAACTGAAG	0.975 ± 0.026
TGGGAACCAG	0.999 ± 0.015
GCGCTGGCGG	1.01 ± 0.024
TGGGGGCCTT	1.02 ± 0.053
TACCGTGGGC	1.04 ± 0.036

Sequence	switch fluorescence ratio
TTTTACAGCG	1 ± 0.036
ACTTTTACA	1.155 ± 0.0053
GAAGTTCATG	1.03 ± 0.024
TGTGCTATGG	1.01 ± 0.02
AGGGAGACGG	1 ± 0.033
ACAGGGTTCT	0.987 ± 0.025
CGCACAGCAC	1.59 ± 0.023
AAAAAACGGT	1.02 ± 0.025
CTAGGTATCA	0.965 ± 0.054
AAGTGACAGG	1 ± 0.022
TATTTGAGTC	0.972 ± 0.021
GTAGGTAGTT	1.09 ± 0.14
TTAGAGGCGC	1.035 ± 0.0095
ATATAGAGTT	1.02 ± 0.082
GGTTACGGGT	0.994 ± 0.057
TACTCGGTTT	0.98 ± 0.014
TTGGCCATGA	0.976 ± 0.029
ACGGTAAACT	1.18 ± 0.065
TTCGTTTGTG	0.971 ± 0.027
ATCGGGGGGT	1.01 ± 0.035
TCCGACTCTT	1.53 ± 0.72
CCCGTAGTTA	1.19 ± 0.042

Sequence	switch fluorescence ratio
TTATGTGGAG	0.974 ± 0.015
CGATTCTTAA	0.996 ± 0.011
TACCGGTTCG	1 ± 0.011
TTTGTGGTTT	0.985 ± 0.043
AGTGAGTCTT	0.994 ± 0.032
GCTTTGGGGC	1.01 ± 0.02
TCCCCGTTTC	1.65 ± 0.75
CAGTGATACG	1.16 ± 0.036
TGAAAGGATT	1.02 ± 0.025
CGACCGTAAA	1.5 ± 0.14
CGGGGTTACC	0.9924 ± 0.0059
AGAGTTTGT	0.987 ± 0.014
TGGGGAAACT	1.15 ± 0.23
TGGGGCGTAT	1.04 ± 0.039
GATGGGGGCC	0.998 ± 0.026
CAGGGGAAGC	0.999 ± 0.011
CCAGACGGGG	0.986 ± 0.029
CGTGTGGTTT	1.03 ± 0.037
GGATTTGAAT	1.03 ± 0.031
